Results published in US20120015347A1.

Assays:
[1] = target: HEL-Dylight488 conjugate (hen egg lysozyme labeled with Dylight488) (chicken) (UniProt P00698); assay: microfluidic fluorescence bead assay; mAb captured on rabbit anti-mouse pAb Protein A beads, labeled antigen in flow
[2] = target: HEL-Dylight633 conjugate (hen egg lysozyme labeled with Dylight633) (chicken) (UniProt P00698); assay: microfluidic fluorescence bead assay; compared with D1.3 mAb on HEL
[3] = target: HEL-Dylight633 conjugate (hen egg lysozyme labeled with Dylight633) (chicken) (UniProt P00698); assay: microfluidic fluorescence bead assay; mAb captured on rabbit anti-mouse pAb Protein A beads, labeled antigen in flow

Substance	Kd [1] [nM]	fold larger association rate constant than D1.3 mAb [2] [fold]	fold smaller dissociation rate constant than D1.3 mAb [2] [fold]	fold smaller equilibrium dissociation constant than D1.3 [2] [fold]	Kd [3] [nM]	koff [3] [s⁻¹]	kon [3] [M⁻¹ s⁻¹]
D1.3 mouse monoclonal antibody (mAb) to lysozyme	1.2						
HyHEL-5 mouse monoclonal antibody to lysozyme		4	10	40	0.03	0.000169	5.75e+06
